Source: patent US11965039B2, “Compstatin analogues and their medical uses” (priority 2018, dated 2024)
Positions of bridges follow the written chain, without caps; N, C: chain ends. Non-standard residues stand in square brackets, D forms with d. Trp(1-Me) = Cn1cc(C[C@H](N)C(=O)O)c2ccccc21; 1Nal = N[C@@H](Cc1cccc2ccccc12)C(=O)O; 2Nal = N[C@@H](Cc1ccc2ccccc2c1)C(=O)O

Target: Human C3 (Complement tech cat #A113c) (human, UniProt P01024 23-1663)
Experiment: cell-based or functional assay

Human C3 (Complement tech cat #A113c), sequence (P01024 23-1663 limits assumed): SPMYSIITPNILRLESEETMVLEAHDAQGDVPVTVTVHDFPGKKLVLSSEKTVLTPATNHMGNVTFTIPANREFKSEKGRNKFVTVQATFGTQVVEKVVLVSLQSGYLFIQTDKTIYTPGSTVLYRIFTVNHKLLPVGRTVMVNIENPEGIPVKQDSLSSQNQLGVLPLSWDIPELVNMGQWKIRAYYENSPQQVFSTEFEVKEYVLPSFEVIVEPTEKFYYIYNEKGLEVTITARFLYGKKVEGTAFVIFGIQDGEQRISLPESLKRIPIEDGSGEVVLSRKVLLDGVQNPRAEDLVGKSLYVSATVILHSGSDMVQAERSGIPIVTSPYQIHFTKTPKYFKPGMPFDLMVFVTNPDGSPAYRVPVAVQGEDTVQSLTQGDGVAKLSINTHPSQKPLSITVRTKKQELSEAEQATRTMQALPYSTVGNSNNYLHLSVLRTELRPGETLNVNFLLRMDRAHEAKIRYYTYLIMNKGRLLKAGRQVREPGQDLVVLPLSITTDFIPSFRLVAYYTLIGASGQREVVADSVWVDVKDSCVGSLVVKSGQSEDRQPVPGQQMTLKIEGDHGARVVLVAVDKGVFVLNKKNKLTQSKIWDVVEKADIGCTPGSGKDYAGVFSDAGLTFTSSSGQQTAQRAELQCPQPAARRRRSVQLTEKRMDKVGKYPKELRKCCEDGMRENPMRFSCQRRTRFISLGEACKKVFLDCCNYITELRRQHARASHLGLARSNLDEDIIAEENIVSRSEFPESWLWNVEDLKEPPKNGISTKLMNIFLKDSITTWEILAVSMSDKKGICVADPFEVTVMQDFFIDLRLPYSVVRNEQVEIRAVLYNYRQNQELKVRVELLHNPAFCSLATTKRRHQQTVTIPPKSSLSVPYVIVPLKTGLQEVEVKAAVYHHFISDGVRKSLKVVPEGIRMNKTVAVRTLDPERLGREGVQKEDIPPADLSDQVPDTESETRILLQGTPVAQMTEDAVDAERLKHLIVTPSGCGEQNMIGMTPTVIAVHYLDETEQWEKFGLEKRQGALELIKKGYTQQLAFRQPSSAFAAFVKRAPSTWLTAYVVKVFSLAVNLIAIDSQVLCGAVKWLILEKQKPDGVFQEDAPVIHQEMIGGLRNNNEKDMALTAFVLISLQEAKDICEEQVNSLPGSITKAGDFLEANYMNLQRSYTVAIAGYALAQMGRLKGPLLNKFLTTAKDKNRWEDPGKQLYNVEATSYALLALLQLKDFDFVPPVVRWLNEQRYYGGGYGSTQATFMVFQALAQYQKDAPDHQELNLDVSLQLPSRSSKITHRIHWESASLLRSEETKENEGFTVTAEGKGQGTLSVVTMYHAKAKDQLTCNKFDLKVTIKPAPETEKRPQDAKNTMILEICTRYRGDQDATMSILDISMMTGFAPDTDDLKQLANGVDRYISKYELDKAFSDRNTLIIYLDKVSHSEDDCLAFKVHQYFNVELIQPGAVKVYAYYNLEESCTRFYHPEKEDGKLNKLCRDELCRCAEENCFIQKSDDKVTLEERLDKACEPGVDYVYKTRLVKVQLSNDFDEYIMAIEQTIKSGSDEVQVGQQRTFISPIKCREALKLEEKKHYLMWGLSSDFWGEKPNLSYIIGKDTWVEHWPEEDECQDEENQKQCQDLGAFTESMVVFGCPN

Binder	inhibition of hemolysis IC50 [nM]
Ac-ICI[2Nal]QDWGEHRCTGAES-NH2 (disulfide 2-12; SMILES CC[C@H](C)[C@H](NC(C)=O)C(=O)N[C@H]1CSSC[C@@H](C(=O)N[C@H](C(=O)NCC(=O)N[C@@H](C)C(=O)N[C@@H](CCC(=O)O)C(=O)N[C@@H](CO)C(N)=O)[C@@H](C)O)NC(=O)[C@H](CCCNC(=N)N)NC(=O)[C@H](Cc2c[nH]cn2)NC(=O)[C@H](CCC(=O)O)NC(=O)CNC(=O)[C@H](Cc2c[nH]c3ccccc23)NC(=O)[C@H](CC(=O)O)NC(=O)[C@H](CCC(N)=O)NC(=O)[C@H](Cc2ccc3ccccc3c2)NC(=O)[C@H]([C@@H](C)CC)NC1=O) [Compound 52]	< 100
Ac-EGSAFCI[1Nal]QDWGEHRCTE-NH2 (disulfide 6-16; SMILES CC[C@H](C)[C@@H]1NC(=O)[C@@H](NC(=O)[C@H](Cc2ccccc2)NC(=O)[C@H](C)NC(=O)[C@H](CO)NC(=O)CNC(=O)[C@H](CCC(=O)O)NC(C)=O)CSSC[C@@H](C(=O)N[C@H](C(=O)N[C@@H](CCC(=O)O)C(N)=O)[C@@H](C)O)NC(=O)[C@H](CCCNC(=N)N)NC(=O)[C@H](Cc2c[nH]cn2)NC(=O)[C@H](CCC(=O)O)NC(=O)CNC(=O)[C@H](Cc2c[nH]c3ccccc23)NC(=O)[C@H](CC(=O)O)NC(=O)[C@H](CCC(N)=O)NC(=O)[C@H](Cc2cccc3ccccc23)NC1=O) [Compound 56]	< 100
Ac-ICI[Trp(1-Me)]QDWGEHRCTGAES-NH2 (disulfide 2-12; SMILES CC[C@H](C)[C@H](NC(C)=O)C(=O)N[C@H]1CSSC[C@@H](C(=O)N[C@H](C(=O)NCC(=O)N[C@@H](C)C(=O)N[C@@H](CCC(=O)O)C(=O)N[C@@H](CO)C(N)=O)[C@@H](C)O)NC(=O)[C@H](CCCNC(=N)N)NC(=O)[C@H](Cc2c[nH]cn2)NC(=O)[C@H](CCC(=O)O)NC(=O)CNC(=O)[C@H](Cc2c[nH]c3ccccc23)NC(=O)[C@H](CC(=O)O)NC(=O)[C@H](CCC(N)=O)NC(=O)[C@H](Cc2cn(C)c3ccccc23)NC(=O)[C@H]([C@@H](C)CC)NC1=O) [Compound 51]	< 100
Ac-EGSAFCI[Trp(1-Me)]QDWGEHRCTE-NH2 (disulfide 6-16; SMILES CC[C@H](C)[C@@H]1NC(=O)[C@@H](NC(=O)[C@H](Cc2ccccc2)NC(=O)[C@H](C)NC(=O)[C@H](CO)NC(=O)CNC(=O)[C@H](CCC(=O)O)NC(C)=O)CSSC[C@@H](C(=O)N[C@H](C(=O)N[C@@H](CCC(=O)O)C(N)=O)[C@@H](C)O)NC(=O)[C@H](CCCNC(=N)N)NC(=O)[C@H](Cc2c[nH]cn2)NC(=O)[C@H](CCC(=O)O)NC(=O)CNC(=O)[C@H](Cc2c[nH]c3ccccc23)NC(=O)[C@H](CC(=O)O)NC(=O)[C@H](CCC(N)=O)NC(=O)[C@H](Cc2cn(C)c3ccccc23)NC1=O) [Compound 57]	< 100
Ac-EGSAFCI[Trp(1-Me)]QDWGEHRCEGE-NH2 (disulfide 6-16; SMILES CC[C@H](C)[C@@H]1NC(=O)[C@@H](NC(=O)[C@H](Cc2ccccc2)NC(=O)[C@H](C)NC(=O)[C@H](CO)NC(=O)CNC(=O)[C@H](CCC(=O)O)NC(C)=O)CSSC[C@@H](C(=O)N[C@@H](CCC(=O)O)C(=O)NCC(=O)N[C@@H](CCC(=O)O)C(N)=O)NC(=O)[C@H](CCCNC(=N)N)NC(=O)[C@H](Cc2c[nH]cn2)NC(=O)[C@H](CCC(=O)O)NC(=O)CNC(=O)[C@H](Cc2c[nH]c3ccccc23)NC(=O)[C@H](CC(=O)O)NC(=O)[C@H](CCC(N)=O)NC(=O)[C@H](Cc2cn(C)c3ccccc23)NC1=O) [Compound 58]	< 100
Ac-FCI[2Nal]QDWGEHRCTGAES-NH2 (disulfide 2-12; SMILES CC[C@H](C)[C@@H]1NC(=O)[C@@H](NC(=O)[C@H](Cc2ccccc2)NC(C)=O)CSSC[C@@H](C(=O)N[C@H](C(=O)NCC(=O)N[C@@H](C)C(=O)N[C@@H](CCC(=O)O)C(=O)N[C@@H](CO)C(N)=O)[C@@H](C)O)NC(=O)[C@H](CCCNC(=N)N)NC(=O)[C@H](Cc2c[nH]cn2)NC(=O)[C@H](CCC(=O)O)NC(=O)CNC(=O)[C@H](Cc2c[nH]c3ccccc23)NC(=O)[C@H](CC(=O)O)NC(=O)[C@H](CCC(N)=O)NC(=O)[C@H](Cc2ccc3ccccc3c2)NC1=O) [Compound 64]	< 100
Ac-EGSAYCI[Trp(1-Me)]QDWGEHRCTE-NH2 (disulfide 6-16; SMILES CC[C@H](C)[C@@H]1NC(=O)[C@@H](NC(=O)[C@H](Cc2ccc(O)cc2)NC(=O)[C@H](C)NC(=O)[C@H](CO)NC(=O)CNC(=O)[C@H](CCC(=O)O)NC(C)=O)CSSC[C@@H](C(=O)N[C@H](C(=O)N[C@@H](CCC(=O)O)C(N)=O)[C@@H](C)O)NC(=O)[C@H](CCCNC(=N)N)NC(=O)[C@H](Cc2c[nH]cn2)NC(=O)[C@H](CCC(=O)O)NC(=O)CNC(=O)[C@H](Cc2c[nH]c3ccccc23)NC(=O)[C@H](CC(=O)O)NC(=O)[C@H](CCC(N)=O)NC(=O)[C@H](Cc2cn(C)c3ccccc23)NC1=O) [Compound 59]	< 100
Ac-EGSAICIWQDWGEHRCTE-NH2 (disulfide 6-16; SMILES CC[C@H](C)[C@H](NC(=O)[C@H](C)NC(=O)[C@H](CO)NC(=O)CNC(=O)[C@H](CCC(=O)O)NC(C)=O)C(=O)N[C@H]1CSSC[C@@H](C(=O)N[C@H](C(=O)N[C@@H](CCC(=O)O)C(N)=O)[C@@H](C)O)NC(=O)[C@H](CCCNC(=N)N)NC(=O)[C@H](Cc2c[nH]cn2)NC(=O)[C@H](CCC(=O)O)NC(=O)CNC(=O)[C@H](Cc2c[nH]c3ccccc23)NC(=O)[C@H](CC(=O)O)NC(=O)[C@H](CCC(N)=O)NC(=O)[C@H](Cc2c[nH]c3ccccc23)NC(=O)[C@H]([C@@H](C)CC)NC1=O) [Compound 55]	< 250
Ac-ICIWQDWGAHRCTGAES-NH2 (disulfide 2-12; SMILES CC[C@H](C)[C@H](NC(C)=O)C(=O)N[C@H]1CSSC[C@@H](C(=O)N[C@H](C(=O)NCC(=O)N[C@@H](C)C(=O)N[C@@H](CCC(=O)O)C(=O)N[C@@H](CO)C(N)=O)[C@@H](C)O)NC(=O)[C@H](CCCNC(=N)N)NC(=O)[C@H](Cc2c[nH]cn2)NC(=O)[C@H](C)NC(=O)CNC(=O)[C@H](Cc2c[nH]c3ccccc23)NC(=O)[C@H](CC(=O)O)NC(=O)[C@H](CCC(N)=O)NC(=O)[C@H](Cc2c[nH]c3ccccc23)NC(=O)[C@H]([C@@H](C)CC)NC1=O) [Compound 47]	< 100
Ac-YCI[Trp(1-Me)]QDWGEHRCTGAES-NH2 (disulfide 2-12; SMILES CC[C@H](C)[C@@H]1NC(=O)[C@@H](NC(=O)[C@H](Cc2ccc(O)cc2)NC(C)=O)CSSC[C@@H](C(=O)N[C@H](C(=O)NCC(=O)N[C@@H](C)C(=O)N[C@@H](CCC(=O)O)C(=O)N[C@@H](CO)C(N)=O)[C@@H](C)O)NC(=O)[C@H](CCCNC(=N)N)NC(=O)[C@H](Cc2c[nH]cn2)NC(=O)[C@H](CCC(=O)O)NC(=O)CNC(=O)[C@H](Cc2c[nH]c3ccccc23)NC(=O)[C@H](CC(=O)O)NC(=O)[C@H](CCC(N)=O)NC(=O)[C@H](Cc2cn(C)c3ccccc23)NC1=O) [Compound 62]	< 100
Ac-YCI[Trp(1-Me)]QDWGEHRCTEAGS-NH2 (disulfide 2-12; SMILES CC[C@H](C)[C@@H]1NC(=O)[C@@H](NC(=O)[C@H](Cc2ccc(O)cc2)NC(C)=O)CSSC[C@@H](C(=O)N[C@H](C(=O)N[C@@H](CCC(=O)O)C(=O)N[C@@H](C)C(=O)NCC(=O)N[C@@H](CO)C(N)=O)[C@@H](C)O)NC(=O)[C@H](CCCNC(=N)N)NC(=O)[C@H](Cc2c[nH]cn2)NC(=O)[C@H](CCC(=O)O)NC(=O)CNC(=O)[C@H](Cc2c[nH]c3ccccc23)NC(=O)[C@H](CC(=O)O)NC(=O)[C@H](CCC(N)=O)NC(=O)[C@H](Cc2cn(C)c3ccccc23)NC1=O) [Compound 68]	< 100
Ac-YCI[2Nal]QDWGEHRCTGAES-NH2 (disulfide 2-12; SMILES CC[C@H](C)[C@@H]1NC(=O)[C@@H](NC(=O)[C@H](Cc2ccc(O)cc2)NC(C)=O)CSSC[C@@H](C(=O)N[C@H](C(=O)NCC(=O)N[C@@H](C)C(=O)N[C@@H](CCC(=O)O)C(=O)N[C@@H](CO)C(N)=O)[C@@H](C)O)NC(=O)[C@H](CCCNC(=N)N)NC(=O)[C@H](Cc2c[nH]cn2)NC(=O)[C@H](CCC(=O)O)NC(=O)CNC(=O)[C@H](Cc2c[nH]c3ccccc23)NC(=O)[C@H](CC(=O)O)NC(=O)[C@H](CCC(N)=O)NC(=O)[C@H](Cc2ccc3ccccc3c2)NC1=O) [Compound 65]	< 100
Ac-YCIWQDWGEHRCTGAES-NH2 (disulfide 2-12; SMILES CC[C@H](C)[C@@H]1NC(=O)[C@@H](NC(=O)[C@H](Cc2ccc(O)cc2)NC(C)=O)CSSC[C@@H](C(=O)N[C@H](C(=O)NCC(=O)N[C@@H](C)C(=O)N[C@@H](CCC(=O)O)C(=O)N[C@@H](CO)C(N)=O)[C@@H](C)O)NC(=O)[C@H](CCCNC(=N)N)NC(=O)[C@H](Cc2c[nH]cn2)NC(=O)[C@H](CCC(=O)O)NC(=O)CNC(=O)[C@H](Cc2c[nH]c3ccccc23)NC(=O)[C@H](CC(=O)O)NC(=O)[C@H](CCC(N)=O)NC(=O)[C@H](Cc2c[nH]c3ccccc23)NC1=O) [Compound 66]	< 100
Ac-EGSAFCI[2Nal]QDWGEHRCTE-NH2 (disulfide 6-16; SMILES CC[C@H](C)[C@@H]1NC(=O)[C@@H](NC(=O)[C@H](Cc2ccccc2)NC(=O)[C@H](C)NC(=O)[C@H](CO)NC(=O)CNC(=O)[C@H](CCC(=O)O)NC(C)=O)CSSC[C@@H](C(=O)N[C@H](C(=O)N[C@@H](CCC(=O)O)C(N)=O)[C@@H](C)O)NC(=O)[C@H](CCCNC(=N)N)NC(=O)[C@H](Cc2c[nH]cn2)NC(=O)[C@H](CCC(=O)O)NC(=O)CNC(=O)[C@H](Cc2c[nH]c3ccccc23)NC(=O)[C@H](CC(=O)O)NC(=O)[C@H](CCC(N)=O)NC(=O)[C@H](Cc2ccc3ccccc3c2)NC1=O) [Compound 60]	< 100
